Here are results for 12 molecules from patent US20240400689A1 (ANTENGENE BIOLOGICS, published 2024).

Read-outs that look alike come from different tables or passages of the source.

Assay [1] has as its target T1, HUMAN B7H3 (Biacore analyte) (human, UniProt Q5ZPR3 29-461, limits assumed).
T1 construct: also called hB7H3
T1 sequence (looked up): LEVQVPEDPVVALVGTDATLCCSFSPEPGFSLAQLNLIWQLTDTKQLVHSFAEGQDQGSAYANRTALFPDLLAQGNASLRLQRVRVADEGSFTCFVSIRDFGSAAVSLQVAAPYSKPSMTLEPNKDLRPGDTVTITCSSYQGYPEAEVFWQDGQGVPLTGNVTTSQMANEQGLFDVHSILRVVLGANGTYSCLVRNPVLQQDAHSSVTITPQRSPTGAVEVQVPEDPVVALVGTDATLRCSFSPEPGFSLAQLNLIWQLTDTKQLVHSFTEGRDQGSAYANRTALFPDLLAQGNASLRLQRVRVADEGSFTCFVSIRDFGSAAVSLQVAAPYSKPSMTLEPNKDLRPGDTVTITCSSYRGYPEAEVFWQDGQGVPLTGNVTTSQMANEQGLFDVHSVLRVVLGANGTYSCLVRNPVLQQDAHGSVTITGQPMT
Nature of the assay: SPR, Biacore 8K, antibody captured, B7H3 as analyte, 1:1 binding.

Assay [2] deals with T2, human CD276 protein (human, UniProt Q5ZPR3 29-534).
T2 sequence (looked up): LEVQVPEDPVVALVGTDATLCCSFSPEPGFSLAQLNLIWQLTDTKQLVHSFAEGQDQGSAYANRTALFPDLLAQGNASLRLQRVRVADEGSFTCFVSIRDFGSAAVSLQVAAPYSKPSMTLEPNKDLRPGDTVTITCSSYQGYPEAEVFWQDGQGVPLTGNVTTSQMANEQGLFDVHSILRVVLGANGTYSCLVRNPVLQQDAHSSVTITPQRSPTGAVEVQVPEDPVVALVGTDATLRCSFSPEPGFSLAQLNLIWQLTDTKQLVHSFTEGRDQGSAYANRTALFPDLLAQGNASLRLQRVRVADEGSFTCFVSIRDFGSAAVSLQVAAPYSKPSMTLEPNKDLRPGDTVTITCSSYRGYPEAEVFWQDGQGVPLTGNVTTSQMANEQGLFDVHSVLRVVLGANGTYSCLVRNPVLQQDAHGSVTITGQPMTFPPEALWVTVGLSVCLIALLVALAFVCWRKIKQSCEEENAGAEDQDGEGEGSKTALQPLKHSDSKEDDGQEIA
The experiment in a line: cell-based or functional assay.

In assay [3] the target is T2, human CD276 protein. The experiment in a line: cell-based or functional assay. This is another data set of the same source.
The target of assay [4] is T2, human CD276 protein. The experiment in a line: FACS on SKOV3 cells. The text has this: Sequences of 31 mouse antibodies from Table 5 were selected to generate and produce human IgG1 chimeric antibodies. The binding affinity of these antibodies and bench mark antibody, Enoblituzumab (see U.S. Pat. No. 8,802,091, MGA271, specifically with a construct designated as hBRCA84D-2) and MGC018 (an antibody-drug-conjugate, in which the mAb MGA017 (human IgG1) is conjugated via a cleavable linker to the prodrug seco-DUocarmycin hydroxyBenzamide Azaindole (DUBA), an alkylating agent that can damage DNA in both dividing and non-dividing cells, thereby causing cell death) with human patient derived ovarian cancer cell line, SKOV3, was determined by FACS analysis.
1. Digested cells using Trypsin (1×); Centrifuged the harvested cells at 300 g for 3 min and discarding the supernatant. […] 2. Washed the cells 2 times with FACS buffer by centrifuging at 300 g for 3 min and discarding the supernatant. [0445] 3. […] Kept the cells in dark for FACS analysis.

The target of assay [5] is T1, HUMAN B7H3 (Biacore analyte). Nature of the assay: SPR, Biacore 8K, antibody captured, B7H3 as analyte, 1:1 binding. This is another data set of the same source.
The target of assay [6] is T2, human CD276 protein. Nature of the assay: cell-based or functional assay. The source holds these as a separate data set.

B1: 16-G3-D10-C10 (human IgG1 chimeric antibody) (antibody, V domains shown)
VH: QIQLVQSGPELKKPGETVKISCKASGYTFRNYGMNWVKQGPGKDLKWMGWINPYTGEPTYIGDFKGRFAFSLETSANSAYLQINNLNNEDMATYFCARDDGYWYTMDYWGQGTSVTVSS
VL: DVVMTQTPPSLPVSLGDQASIPCRSSQSLVHSNGITYLHWYLQKPGQSPKLLIYKVSNRFSGVPDRFSGSGSGTDFTLKISRVEAEDLGVYFCSQSTHVPWTFGGGTKLEIK
notes: human IgG1 chimeric antibody of the mouse clone
With B1, in assay [1], the Kd is 1.16 nM, the koff stood at 0.000214 s⁻¹ and the kon was found to be 185000 M⁻¹ s⁻¹. For the same molecule, in the assay with human CD276 protein [2], the “EC50 of antibody induced CDC effect” value was determined as 1.43 nM and the “Top cytotoxicity (%), CDC” value came out at 93.6%. For the same molecule, the “EC50 of antibody induced ADCC effect on SKOV3” value (“EC50 … on SKOV3” below) in the assay with human CD276 protein [3] is 0.0419 µg/mL. Also, in the assay with human CD276 protein [4], the EC50 worked out at 1.31 µg/mL and the “MFI (Max)” value was 3180.

B2: 10-G6-C4-B2_hVH2-VL1_PTM (antibody, V domains shown)
VH: EVQLVESGGGLVQPGGSLRLSCATSGFTLSDYYMSWVRQAPGKGLEWVSFMRNKANAYTTEYSASVRGRFTISRDTSKSTIYLQMNSLRAEDTAVYYCVRDREGRPFAYWGQGTLVTVSS
VL: DIVMTQSPDSLAVSLGERATINCKSSQSLLNAINQKNFLTWYQQKPGQPPKLLIYWASTRESGVPDRFSGSGSGTDFTLTISSLQAEDLAVYYCQNDYTYPLTFGQGTKLEIK
notes: humanized, PTM-optimized antibody from 10-G6-C4-B2
In assay [5], B2 yielded a Kd of 0.851 nM, a koff of 7.26e-05 s⁻¹ and a kon of 85300 M⁻¹ s⁻¹.

B3: 10-G6-C4-B2_hVH4-VL2_PTM (antibody, V domains shown)
VH: EVQLVESGGGLIQPGGSLRLSCATSGFTLSDYYMSWVRQPPGKGLEWVSFMRNKANAYTTEYSASVRGRFTISRDTSKSTIYLQMNSLRAEDTAVYYCVRDREGRPFAYWGQGTLVTVSS
VL: DIVMTQSPLSLPVTPGEPASISCKSSQSLLNAINQKNFLTWYLQKPGQSPQLLIYWASTRESGVPDRFSGSGSGTDFTLKISRVEAEDLGVYYCQNDYTYPLTFGQGTKLEIK
notes: as for B2
In assay [5], B3 yielded a Kd of 1.35 nM, an off-rate (koff) of 7.12e-05 s⁻¹ and a kon of 52700 M⁻¹ s⁻¹.

B4: 10-G6-C4-B2_hVH3-VL3_PTM (antibody, V domains shown)
VH: EVQLVESGGGLVQPGGSLRLSCATSGFTLSDYYMSWVRQAPGKGLEWVGFMRNKANAYTTEYSASVRGRFTISRDTSKSSIYLQMNSLKTEDTAVYYCVRDREGRPFAYWGQGTLVTVSS
VL: DIQMTQSPSSLSASVGDRVTITCKSSQSLLNAINQKNFLTWYQQKPGKAPKLLIYWASTRESGVPSRFSGSGSGTDFTLTISSLQPEDLATYYCQNDYTYPLTFGQGTKLEIK
notes: as for B2
In assay [5], B4 came in with a Kd of 0.0087 nM, a koff of 1.02e-06 s⁻¹ and a kon of 118000 M⁻¹ s⁻¹.

B5: 10-G6-C4-B2_hVH5-VL1_PTM (antibody, V domains shown)
VH: EVQLVESGGGLVQPGRSLRLSCTTSGFTLSDYYMSWVRQAPGKGLEWVGFMRNKANAYTTEYSASVRGRFTISRDTSKSIIYLQMNSLKTEDTAVYYCVRDREGRPFAYWGQGTLVTVSS
VL: DIVMTQSPDSLAVSLGERATINCKSSQSLLNAINQKNFLTWYQQKPGQPPKLLIYWASTRESGVPDRFSGSGSGTDFTLTISSLQAEDLAVYYCQNDYTYPLTFGQGTKLEIK
notes: as for B2
B5: in assay [5], the affinity, expressed as Kd, was 0.0929 nM; the koff was determined as 1.37e-05 s⁻¹; the kon was found to be 147000 M⁻¹ s⁻¹.

B6: 10-G6-C4-B2_hVH4-VL1_PTM (antibody, V domains shown)
VH: EVQLVESGGGLIQPGGSLRLSCATSGFTLSDYYMSWVRQPPGKGLEWVSFMRNKANAYTTEYSASVRGRFTISRDTSKSTIYLQMNSLRAEDTAVYYCVRDREGRPFAYWGQGTLVTVSS
VL: DIVMTQSPDSLAVSLGERATINCKSSQSLLNAINQKNFLTWYQQKPGQPPKLLIYWASTRESGVPDRFSGSGSGTDFTLTISSLQAEDLAVYYCQNDYTYPLTFGQGTKLEIK
notes: as for B2
In assay [5], B6 displayed a Kd of 1.73 nM, a koff of 0.000155 s⁻¹ and a kon of 89600 M⁻¹ s⁻¹.

B7: 10-G6-C4-B2_hVH5-VL3_PTM (antibody, V domains shown)
VH: EVQLVESGGGLVQPGRSLRLSCTTSGFTLSDYYMSWVRQAPGKGLEWVGFMRNKANAYTTEYSASVRGRFTISRDTSKSIIYLQMNSLKTEDTAVYYCVRDREGRPFAYWGQGTLVTVSS
VL: DIQMTQSPSSLSASVGDRVTITCKSSQSLLNAINQKNFLTWYQQKPGKAPKLLIYWASTRESGVPSRFSGSGSGTDFTLTISSLQPEDLATYYCQNDYTYPLTFGQGTKLEIK
notes: as for B2
As to B7, in assay [5], binding was put at a Kd of 0.00692 nM, the koff is 1.01e-06 s⁻¹ and the kon is 146000 M⁻¹ s⁻¹.

B8: 15-G1-D1-E3 (human IgG1 chimeric antibody) (antibody, V domains shown)
VH: QVQLQQPGAELVKPGTSVKLSCKASGYTFTSYWIHWVKQRPGQGLEWIGMIHPKSGTVDYNEKFKSKATLTADKSSNTAYMQLSSLTSEASVVYYCARGENYDYRPQFVYWGQGTLVTVSA
VL: QLVLTQSSSASFSLGASAKLTCTLSSQHSTYTIEWYQQQPLKPPKYVMELKKDGSHRTGDGIPDRFSGSSSGADRYLSISNIQPEDEAIYICGVGDTIKEQFVYVFGGGTKVTVL
notes: as for B1
In the case of B8, in assay [1], the Kd is 0.383 nM, the koff was determined as 0.000211 s⁻¹ and the kon is 550000 M⁻¹ s⁻¹. Besides, the “EC50 … on SKOV3” value with human CD276 protein [3] came out at 0.0655 µg/mL. For the same molecule, in the assay with human CD276 protein [4], the EC50 was 0.811 µg/mL and the “MFI (Max)” value was found to be 3190.

B9: 30-E2-G7-G7 (human IgG1 chimeric antibody) (antibody, V domains shown)
VH: EVQLQESGGGLVKPGGSLKLSCAASGFTFSYYAMSWVRQTPEKRLEWVATINGDGSHTYYPDSVRGRFTISRDNAKNTLYLQVSSLRSEDTAMYYCASLLQLGPFWGQGTTLTVSS
VL: DIVMTQSQKFMSTSVGDRVSVTCKASQNVGTNVAWYHQRPGQSPKPLIYSASYRYSGVPDRFTGSGSGTDFTLTISNVQSEDLAEYFCQQYNNYPLTFGSGTKLEIK
notes: as for B1
Take B9: the “EC50 … on SKOV3” value with human CD276 protein [3] amounted to 0.247 µg/mL. Also, in the assay with human CD276 protein [4], the EC50 is 0.814 µg/mL and the “MFI (Max)” value was found to be 5630.

B10: 27-F8-E10-E11 (human IgG1 chimeric antibody) (antibody, V domains shown)
VH: EVQLQQSGPELVKPGASVKISCKTSGYTFTEYAMHWVKQSHGKILEWIGGINPNIGGTTYNQKFKDKATLTVDKSSSTASMELRSLTSEDSAVYYCARFLVPSTEGFTYWGQGTLVTVSA
VL: QIVLTQSPAIMSASPGEKVTMTCSASSSVSYMHWYQQKSGTSPKRWIYDTSRVASGVPARFSGSGSGTSYSLTISSMEAEDAATYYCQQWSSNPLTFGAGTKLELK
notes: as for B1
In assay [1], B10 returned a Kd of 0.621 nM, a koff of 0.000173 s⁻¹ and a kon of 278000 M⁻¹ s⁻¹. Also, the “EC50 … on SKOV3” value in the assay with human CD276 protein [3] turned out to be 0.0238 µg/mL. Moreover, in the assay with human CD276 protein [4], the midpoint of the response, the EC50, lay at 2.26 µg/mL and the “MFI (Max)” value was 3220.

B11: 13-E4-G9-A4 (human IgG1 chimeric antibody) (antibody, V domains shown)
VH: EVMLVESGGGLVKPGGSLKFSCAASGFTFITYAMSWVRQTPEKRLEWVATISGGGIDTYYPDSVKGRFTISRDNAKNTLYLQVNSLRSEDTAMYYCTRQGSQGWGAMDYWGQGTSVTVSS
VL: QIVLTQSPPIMSASPGERVTMTCRASSRVSFMHWYQQKSGTSPRRWIYETSKLASGVPDRFSGSVSGTSYSLTISSMEAEDAATYYCQQWSSNPLTFGAGTKLELK
notes: as for B1
B11: the “IC50 of indirect ADC cytotoxicity on SKOV3” value in the assay with human CD276 protein [6] is 0.021 nM. Further, the “EC50 … on SKOV3” value in the assay with human CD276 protein [3] came out at 0.876 µg/mL. Besides, in the assay with human CD276 protein [4], the response was half-maximal at 1.77 µg/mL (EC50) and the “MFI (Max)” value worked out at 3080.

B12: 3-C2-C3-E7 (human IgG1 chimeric antibody) (antibody, V domains shown)
VH: EVQLQQSGPELVKPGASVKISCKTSGYTFTENTMHWVKQSHGKRLEWIGGINPNTGGTTYNQKFKGKATLTVDKSSSTAYMELRSLTSEDSAVYYCARRGTNWEHWYFDVWGAGTTVTVSS
VL: QIVLTQSPAIMSASPGEKVTMTCSASSSVSYMHWYQQKSGTSPKRWIYDTSKLASGVPARFSGSGSGTSYSLTISSMEAEDAATYYCQQWSSNPLTFGAGTKLELK
notes: as for B1
For the molecule B12, the “EC50 … on SKOV3” value in the assay with human CD276 protein [3] was 0.186 µg/mL. In the assay with human CD276 protein [4], the EC50 came out at 1.43 µg/mL and the “MFI (Max)” value is 3700.
